This note sets out measurements from patent US9120851B2, “Human antibodies to human angiopoietin-like protein 4” (Regeneron Pharmaceuticals, Inc., priority 2009, dated 2015).

One assay has as its target T1, hANGPTL4(26-406)-His (Homo sapiens, UniProt Q9BY76).
T1 construct: purchased R&D Systems
T1 sequence (Q9BY76 26-406): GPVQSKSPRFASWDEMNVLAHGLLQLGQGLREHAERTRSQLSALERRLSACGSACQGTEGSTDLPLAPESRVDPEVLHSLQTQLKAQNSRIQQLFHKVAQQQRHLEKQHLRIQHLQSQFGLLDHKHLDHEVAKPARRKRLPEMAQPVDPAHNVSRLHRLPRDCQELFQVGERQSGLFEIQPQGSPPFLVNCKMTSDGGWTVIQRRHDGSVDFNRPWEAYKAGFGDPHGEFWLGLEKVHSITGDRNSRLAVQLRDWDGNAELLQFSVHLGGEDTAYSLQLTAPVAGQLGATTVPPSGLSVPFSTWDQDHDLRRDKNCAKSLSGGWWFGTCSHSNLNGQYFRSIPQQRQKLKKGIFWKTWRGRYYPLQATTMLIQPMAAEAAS
Kind of assay: BIACORE, full mAb or Fab over amino-coupled hANGPTL4(26-406)-His. It counts as binding. Conditions: for RU bound at 50 nM mAb or Fab: amino-coupled 450 RU. How it is done: Briefly, various concentrations (3.125 nM-100 nM) of anti-hANGPTL4 antibodies (i.e., H1H268 Fab, entire H1H268 mAb, H1H284 Fab, and entire H1H284 mAb) were injected over a low density anti-mFc captured hANGPTL4(26-148)-mFc (˜68±4 RU) surface, or the surface of amino-coupled hANGPTL4(26-406)-His (R&D Systems) (450 RU) or amino-coupled cynomolgus monkey N-terminal region (amino acid residues 1-130 of SEQ ID NO:490) expressed with an C-terminal hexa-histidine tag (MfANGPTL4(1-130)-His) (1,028 RU). Kinetic analysis was performed to measure ka and kd, and KD values and half-life of antigen/antibody complex dissociation were calculated. The results are shown in Table 4 (H1H268P) and Table 5 (H1H284P).
(In general: SPR reads the build-up and loss of mass on a sensor chip optically.)

The target of a further assay is T2, hANGPTL4-His (Homo sapiens, UniProt Q9BY76).
T2 construct: purchased R&D Systems 4487-AN
T2 sequence (Q9BY76 26-406): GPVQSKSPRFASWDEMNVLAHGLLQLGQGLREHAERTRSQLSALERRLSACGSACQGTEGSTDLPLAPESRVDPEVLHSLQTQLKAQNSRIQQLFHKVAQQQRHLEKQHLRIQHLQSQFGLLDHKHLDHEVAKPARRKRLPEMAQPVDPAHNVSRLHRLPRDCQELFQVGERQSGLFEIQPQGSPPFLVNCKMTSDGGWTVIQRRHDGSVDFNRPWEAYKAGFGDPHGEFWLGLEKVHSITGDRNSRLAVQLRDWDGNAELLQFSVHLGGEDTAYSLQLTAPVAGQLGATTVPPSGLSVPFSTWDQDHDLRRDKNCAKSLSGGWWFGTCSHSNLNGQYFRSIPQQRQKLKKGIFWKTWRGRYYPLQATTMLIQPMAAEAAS
As to the kind of experiment: BIACORE cross-reactivity, amine coupled hANGPTL4-His. The following applies: for Specific RU, hANGPTL4-His: chip surface 6247 RU, mAb injected at 3.125-50 μg/mL. It counts as binding. The protocol:
(§1) Possible cross-reactivity of the anti-hANGPTL4 antibodies to related proteins, i.e., hANGPTL3, human angiopoietin-like protein 5 (hANGPTL5) and mouse ANGPTL4 (mANGPTL4), was tested for the selected antibodies, i.e., H1H268P and H1H284P, using the BIACORE™ system. Briefly, anti-hANGPTL4 antibodies as well as negative controls, i.e., two monoclonal antibodies (Control a and Control b) that are non-binders to any ANGPTL proteins, were injected at 3.125 μg/mL-50 μg/mL over amine coupled chip surfaces of hANGPTL3-His (R&D Systems, cat #3829-AN) at 5228 RU, hANGPTL4-His (R&D Systems, cat #4487-AN) at 6247 RU, hANGPTL5-His (Abnova Corp., cat #H00253935-P01) at 5265 RU, and mANGPTL4-His [R26-S410 of mANGPTL4 (SEQ ID NO: 478) fused with an AS linker to a C-terminal 6-histidine tag] at 5233 RU, respectively. A polyclonal antibody specific for hANGPTL3 (R&D System, cat #BAF3485) was also tested.

The target in another assay is T3, mANGPTL4-His (Mus musculus, UniProt Q9Z1P8).
T3 sequence (Q9Z1P8 26-410): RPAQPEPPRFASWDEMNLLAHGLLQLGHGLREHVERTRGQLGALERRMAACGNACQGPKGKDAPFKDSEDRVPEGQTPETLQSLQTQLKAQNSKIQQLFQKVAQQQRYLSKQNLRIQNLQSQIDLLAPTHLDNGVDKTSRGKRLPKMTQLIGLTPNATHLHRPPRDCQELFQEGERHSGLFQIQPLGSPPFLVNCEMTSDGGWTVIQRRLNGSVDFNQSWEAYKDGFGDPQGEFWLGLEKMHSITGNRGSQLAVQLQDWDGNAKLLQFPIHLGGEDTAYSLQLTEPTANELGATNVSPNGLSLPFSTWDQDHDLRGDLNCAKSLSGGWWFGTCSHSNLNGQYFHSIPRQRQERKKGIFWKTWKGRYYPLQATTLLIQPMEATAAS
As to the kind of experiment: BIACORE cross-reactivity, amine coupled mANGPTL4-His. It counts as binding. Conditions: for Specific RU, mANGPTL4-His: chip surface 5233 RU, mAb injected at 3.125-50 μg/mL. The protocol: as §1

Another assay has as its system humanized ANGPTL4 mice. As to the kind of experiment: Serum TG levels in humanized ANGPTL4 mice. It counts as in vivo, mouse. Conditions: for Serum TG: mean±SEM. How it is done:
The effect of anti-hANGPTL4 antibodies H1H268P and H1H284P on serum TG levels was determined in mice expressing the ANGPTL4 protein containing the human N-terminal coil-coil region (“humanized ANGPTL4 mice”). The humanized ANGPTL4 mouse was made by replacing first three exons of the mouse Angptl4 gene (the N terminal coil-coil region) with the corresponding human N-terminal coil-coil ANGPLT4 sequence in C57BL6/129 (F1H4) embryonic stem cells. After germ line transmission was established, heterozygous mice (ANGPTL4hum/+) were bred together to generate homozygous mice [ANGPTL4hum/hum or hANGPTL4(+/+)] on a C57BL6 background. Humanized ANGPTL4 mice were pre-bled 7 days before (day −7) the experiment and put into groups of six mice each for each antibody tested. Antibodies (H1H268P, H1H284P and isotype-matched (hIgG1) control with no known cross-reactivity to mouse antigens) were administered at 10 mg/kg dose by subcutaneous injection. Mice were bled after 4 hours of fasting at days 1, 4, 7 and 11 after antibody injection; and serum TG levels were determined by ADVIA® 1800 Chemistry System (Siemens). Average TG levels were calculated for each time point for each antibody.
The effect of anti-hANGPTL4 antibodies, H4H268P2 and H4H284P, on serum TG levels was determined in humanized ANGPTL4 mice. Humanized ANGPTL4 mice were pre-bled 7 days before the experiment and put into groups of six mice each for each antibody tested. Antibodies (H4H268P2, H4H284P and isotype-matched (hIgG4) control with no known cross-reactivity to mouse antigens) were administered at 10 mg/kg dose by subcutaneous injection. Mice were bled after 4 hours of fasting at days 1, 4, 7 and 11 after antibody injection; and TG levels were determined in the serum by ADVIA® 1800 Chemistry System (Siemens). Average TG levels were calculated for each time point for each antibody.

Where [1] appears, read: day 1 after injection, 10 mg/kg s.c., 4 h fasting.
Setting [2] is: day 4 after injection, 10 mg/kg s.c., 4 h fasting.
Setting [3] is: day 7 after injection, 10 mg/kg s.c., 4 h fasting.
[4] abbreviates: day 11 after injection, 10 mg/kg s.c., 4 h fasting.

B1: H1H284P: anti-hANGPTL4 antibody, hIgG1 isotype, HCVR/LCVR SEQ ID NOs 90/92 (antibody, V domains shown)
VH: QVQLVESGGGVVQPGRSLRLSCAASGFTFSSYGMHWVRQAPGKGLEWMAVISFDGGNKNNADSVKGRFTISRDNSKNTLYLQMNSLRAEDTAVYYCAKEGDRSGHPYFYYYGLDVWGQGTTVTVS
VL: DIQLTQSPSFLSASVGDRVTITCWASQGISSYLAWYQQKPGKAPKLLIYAASTLQSGVPSRFSGSGSETEFTLTISSLQPEDFATYYCQQLHSYPLTFGGGTKVEIK
As for B1, the ka came to 1.93e+06 M⁻¹ s⁻¹ with hANGPTL4(26-406)-His (pH 5.75, 25° C.) and 850000 M⁻¹ s⁻¹ with hANGPTL4(26-406)-His (pH 7.2, 25° C.). Moreover, the kd was 0.000272 s⁻¹ in the assay with hANGPTL4(26-406)-His (pH 5.75, 25° C.) and 8.85e-05 s⁻¹ with hANGPTL4(26-406)-His (pH 7.2, 25° C.). Besides, the “RU bound at 50 nM mAb or Fab” value in the assay with hANGPTL4(26-406)-His (pH 5.75, 25° C.) is 101; in the assay with hANGPTL4(26-406)-His (pH 7.2, 25° C.), 77. Further, the “binding to hANGPTL4-His, in words” value with hANGPTL4-His is on record as “bound specifically”. In addition, the “Specific RU, hANGPTL4-His” value with hANGPTL4-His stood at 1351 RU. Moreover, the “binding to mANGPTL4-His (other related ANGPTL protein), in words” value with mANGPTL4-His is “did not bind”. Further, the “Specific RU, mANGPTL4-His” value in the assay with mANGPTL4-His came out at 18 RU. The “Serum TG” value is on record as 125 ± 18 mg/dL in the assay on humanized ANGPTL4 mice (setting [1]); 67 ± 9.8 mg/dL with humanized ANGPTL4 mice (setting [2]); 91 ± 7.2 mg/dL in the assay with humanized ANGPTL4 mice (setting [3]); 109 ± 11 mg/dL in the assay with humanized ANGPTL4 mice (setting [4]); 113 ± 11 mg/dL with humanized ANGPTL4 mice (day −7 (pre-bleed)). Besides, the “TG levels relative to control, in words” value in the assay with humanized ANGPTL4 mice (day 11 after injection, 10 mg/kg s.c.) is given as “increased back to control level”.

B2: H1H268P: anti-hANGPTL4 antibody, hIgG1 isotype, HCVR/LCVR SEQ ID NOs 42/44 (antibody, V domains shown)
VH: QVQLQESGAGLLKPSETLSLTCTVYGGSFSIHHWTWIRHPPGKGLEWIGEINHRGSTNYNPSLKSRVTISIDTSKNQFSLKLSAVTAADTAVYYCARGLRFLDWLSSYFDYWGQGTLVTVSS
VL: DIQMTQSPSSLSASVGDRVTITCRASQGISDYLAWYQQKPGKVPNLLIYAASALQSGVPSRFSGSGSGTDFTLTISSLQPEDVATYYCQNYNTAPLTFGGGTKVEIK
As to B2, in the assay with hANGPTL4(26-406)-His (pH 5.75, 25° C.), the ka turned out to be 923000 M⁻¹ s⁻¹, the kd stood at 0.000446 s⁻¹ and the “RU bound at 50 nM mAb or Fab” value turned out to be 45. For the same molecule, in the assay with hANGPTL4(26-406)-His (pH 7.2, 25° C.), the ka is 489000 M⁻¹ s⁻¹, the kd is 0.0002 s⁻¹ and the “RU bound at 50 nM mAb or Fab” value turned out to be 38. In the assay with hANGPTL4-His, the “binding to hANGPTL4-His, in words” value was “bound specifically” and the “Specific RU, hANGPTL4-His” value amounted to 768 RU. In addition, in the assay with mANGPTL4-His, the “binding to mANGPTL4-His (other related ANGPTL protein), in words” value is reported as “did not bind” and the “Specific RU, mANGPTL4-His” value is −7 RU. Also, the “reduction in circulating TG compared to isotype-matched control antibody” value in the assay with humanized ANGPTL4 mice (4-11 days after administration, 10 mg/kg s.c.) is 25-30%. In addition, in the assay on humanized ANGPTL4 mice (setting [1]), the “Serum TG” value amounted to 129.8 ± 5.6 mg/dL. Also, in the assay with humanized ANGPTL4 mice (setting [2]), the “Serum TG” value is 73.3 ± 8.9 mg/dL. In addition, the “Serum TG” value in the assay on humanized ANGPTL4 mice (setting [3]) was 83 ± 14 mg/dL. Further, the “Serum TG” value in the assay with humanized ANGPTL4 mice (day −7 (pre-bleed)) is 112 ± 9.3 mg/dL.

B3: H4H268P2: IgG4 version of H1H268P with a single amino acid substitution in framework region 1, HCVR/LCVR SEQ ID NOs 487/44 (antibody, V domains shown)
VH: QVQLQQSGAGLLKPSETLSLTCTVYGGSFSIHHWTWIRHPPGKGLEWIGEINHRGSTNYNPSLKSRVTISIDTSKNQFSLKLSAVTAADTAVYYCARGLRFLDWLSSYFDYWGQGTLVTVSS
VL: DIQMTQSPSSLSASVGDRVTITCRASQGISDYLAWYQQKPGKVPNLLIYAASALQSGVPSRFSGSGSGTDFTLTISSLQPEDVATYYCQNYNTAPLTFGGGTKVEIK
modifications: IgG4 constant region
As to B3, the “reduction in circulating TG compared to isotype-matched control antibody, in words” value is “significant reduction” with humanized ANGPTL4 mice (day 1, 10 mg/kg s.c.) and “significant reduction” in the assay on humanized ANGPTL4 mice (day 4, 10 mg/kg s.c.). In addition, the “Serum TG” value in the assay on humanized ANGPTL4 mice (setting [1]) came to 81 ± 6.8 mg/dL; in the assay on humanized ANGPTL4 mice (setting [2]), 67 ± 5.3 mg/dL; with humanized ANGPTL4 mice (setting [3]) it was 56 ± 7.1 mg/dL; in the assay with humanized ANGPTL4 mice (setting [4]), 87 ± 8.7 mg/dL; in the assay with humanized ANGPTL4 mice (day −7 (pre-bleed)), 101 ± 9.3 mg/dL.
